For this experiment, the target named is Human lactoferrin (human). Description: small angle neutron scattering (SANS); iron containing samples in solution, 7 °C: iron saturated Lf (L3770; 100 mM MES, 150 mM NaCl, D2O) at pD 5 and pD 7, and partially saturated Lf (L3770 in the EDTA buffer, pD 5); concentration series 2.5-50 mg/ml, form factor extrapolated to c = 0, aggregates modelled by a Guinier term added to the monomer form factor.

Take Human lactoferrin (natural protein): the stoichiometry N was 10 monomers.

The values above are taken from publication PMC5095980.
